B1: CE115HA000 A52aS one-arm antibody (antibody, human IgG1, kappa, L234A L235A, N297A, name in Kabat numbering)
heavy: QVQLVESGGGVVQPGRSLRLSCAASGFTFSNAWMHWVRQAPGKGLEWVAQIKSKSNNYATYYAESVKGRFTISRDDSKNSLYLQMNSLKTEDTAVYYCRYVHYGAYYGVDAWGQGTTVTVSSASTKGPSVFPLAPSSKSTSGGTAALGCLVKDYFPEPVTVSWNSGALTSGVHTFPAVLQSSGLYSLSSVVTVPSSSLGTQTYICNVNHKPSNTKVDKKVEPKSCDKTHTCPPCPAPEAAGGPSVFLFPPKPKDTLMISRTPEVTCVVVDVSHEDPEVKFNWYVDGVEVHNAKTKPREEQYASTYRVVSVLTVLHQDWLNGKEYKCKVSNKALPAPIEKTISKAKGQPREPQVYTLPPSRCELTKNQVSLSCAVKGFYPSDIAVEWESNGQPENNYKTTPPVLDSDGSFFLVSKLTVDKSRWQQGNVFSCSVMHEALHNHYTQKSLSLSPDYKDDDDK
chain: EPKSSDKTHTCPPCPAPELLGGPSVFLFPPKPKDTLMISRTPEVTCVVVDVSHEDPEVKFNWYVDGVEVHNAKTKPREEQYNSTYRVVSVLTVLHQDWLNGKEYKCKVSNKALPAPIEKTISKAKGQPREPQVCTLPPSRDELTKNQVSLWCLVKGFYPSDIAVEWESNGQPENNYKTTPPVLDSDGSFFLYSKLTVDKSRWQQGNVFSCSVMHEALHNRYTQKSLSLSP
light: DIVMTQSPLSLPVTPGEPASISCRSSQSLVHSNRNTYLHWYQQKPGQAPRLLIYKVSNRFSGVPDRFSGSGSGTDFTLKISRVEAEDVGVYYCGQGTQVPYTFGQGTKLEIKRTVAAPSVFIFPPSDEQLKSGTASVVCLLNNFYPREAKVQWKVDNALQSGNSQESVTEQDSKDSTYSLSSTLTLSKADYEKHKVYACEVTHQGLSSPVTKSFNRGEC
B2: CE115HA000 A52aV one-arm antibody (antibody, human IgG1, kappa, L234A L235A, N297A, name in Kabat numbering)
heavy: QVQLVESGGGVVQPGRSLRLSCAASGFTFSNAWMHWVRQAPGKGLEWVAQIKVKSNNYATYYAESVKGRFTISRDDSKNSLYLQMNSLKTEDTAVYYCRYVHYGAYYGVDAWGQGTTVTVSSASTKGPSVFPLAPSSKSTSGGTAALGCLVKDYFPEPVTVSWNSGALTSGVHTFPAVLQSSGLYSLSSVVTVPSSSLGTQTYICNVNHKPSNTKVDKKVEPKSCDKTHTCPPCPAPEAAGGPSVFLFPPKPKDTLMISRTPEVTCVVVDVSHEDPEVKFNWYVDGVEVHNAKTKPREEQYASTYRVVSVLTVLHQDWLNGKEYKCKVSNKALPAPIEKTISKAKGQPREPQVYTLPPSRCELTKNQVSLSCAVKGFYPSDIAVEWESNGQPENNYKTTPPVLDSDGSFFLVSKLTVDKSRWQQGNVFSCSVMHEALHNHYTQKSLSLSPDYKDDDDK
chain: EPKSSDKTHTCPPCPAPELLGGPSVFLFPPKPKDTLMISRTPEVTCVVVDVSHEDPEVKFNWYVDGVEVHNAKTKPREEQYNSTYRVVSVLTVLHQDWLNGKEYKCKVSNKALPAPIEKTISKAKGQPREPQVCTLPPSRDELTKNQVSLWCLVKGFYPSDIAVEWESNGQPENNYKTTPPVLDSDGSFFLYSKLTVDKSRWQQGNVFSCSVMHEALHNRYTQKSLSLSP
light: DIVMTQSPLSLPVTPGEPASISCRSSQSLVHSNRNTYLHWYQQKPGQAPRLLIYKVSNRFSGVPDRFSGSGSGTDFTLKISRVEAEDVGVYYCGQGTQVPYTFGQGTKLEIKRTVAAPSVFIFPPSDEQLKSGTASVVCLLNNFYPREAKVQWKVDNALQSGNSQESVTEQDSKDSTYSLSSTLTLSKADYEKHKVYACEVTHQGLSSPVTKSFNRGEC
B3: CE115HA000 A52aY one-arm antibody (antibody, human IgG1, kappa, L234A L235A, N297A, name in Kabat numbering)
heavy: QVQLVESGGGVVQPGRSLRLSCAASGFTFSNAWMHWVRQAPGKGLEWVAQIKYKSNNYATYYAESVKGRFTISRDDSKNSLYLQMNSLKTEDTAVYYCRYVHYGAYYGVDAWGQGTTVTVSSASTKGPSVFPLAPSSKSTSGGTAALGCLVKDYFPEPVTVSWNSGALTSGVHTFPAVLQSSGLYSLSSVVTVPSSSLGTQTYICNVNHKPSNTKVDKKVEPKSCDKTHTCPPCPAPEAAGGPSVFLFPPKPKDTLMISRTPEVTCVVVDVSHEDPEVKFNWYVDGVEVHNAKTKPREEQYASTYRVVSVLTVLHQDWLNGKEYKCKVSNKALPAPIEKTISKAKGQPREPQVYTLPPSRCELTKNQVSLSCAVKGFYPSDIAVEWESNGQPENNYKTTPPVLDSDGSFFLVSKLTVDKSRWQQGNVFSCSVMHEALHNHYTQKSLSLSPDYKDDDDK
chain: EPKSSDKTHTCPPCPAPELLGGPSVFLFPPKPKDTLMISRTPEVTCVVVDVSHEDPEVKFNWYVDGVEVHNAKTKPREEQYNSTYRVVSVLTVLHQDWLNGKEYKCKVSNKALPAPIEKTISKAKGQPREPQVCTLPPSRDELTKNQVSLWCLVKGFYPSDIAVEWESNGQPENNYKTTPPVLDSDGSFFLYSKLTVDKSRWQQGNVFSCSVMHEALHNRYTQKSLSLSP
light: DIVMTQSPLSLPVTPGEPASISCRSSQSLVHSNRNTYLHWYQQKPGQAPRLLIYKVSNRFSGVPDRFSGSGSGTDFTLKISRVEAEDVGVYYCGQGTQVPYTFGQGTKLEIKRTVAAPSVFIFPPSDEQLKSGTASVVCLLNNFYPREAKVQWKVDNALQSGNSQESVTEQDSKDSTYSLSSTLTLSKADYEKHKVYACEVTHQGLSSPVTKSFNRGEC
B4: CE115HA000 A56D one-arm antibody (antibody, human IgG1, kappa, L234A L235A, N297A, name in Kabat numbering)
heavy: QVQLVESGGGVVQPGRSLRLSCAASGFTFSNAWMHWVRQAPGKGLEWVAQIKAKSNNYDTYYAESVKGRFTISRDDSKNSLYLQMNSLKTEDTAVYYCRYVHYGAYYGVDAWGQGTTVTVSSASTKGPSVFPLAPSSKSTSGGTAALGCLVKDYFPEPVTVSWNSGALTSGVHTFPAVLQSSGLYSLSSVVTVPSSSLGTQTYICNVNHKPSNTKVDKKVEPKSCDKTHTCPPCPAPEAAGGPSVFLFPPKPKDTLMISRTPEVTCVVVDVSHEDPEVKFNWYVDGVEVHNAKTKPREEQYASTYRVVSVLTVLHQDWLNGKEYKCKVSNKALPAPIEKTISKAKGQPREPQVYTLPPSRCELTKNQVSLSCAVKGFYPSDIAVEWESNGQPENNYKTTPPVLDSDGSFFLVSKLTVDKSRWQQGNVFSCSVMHEALHNHYTQKSLSLSPDYKDDDDK
chain: EPKSSDKTHTCPPCPAPELLGGPSVFLFPPKPKDTLMISRTPEVTCVVVDVSHEDPEVKFNWYVDGVEVHNAKTKPREEQYNSTYRVVSVLTVLHQDWLNGKEYKCKVSNKALPAPIEKTISKAKGQPREPQVCTLPPSRDELTKNQVSLWCLVKGFYPSDIAVEWESNGQPENNYKTTPPVLDSDGSFFLYSKLTVDKSRWQQGNVFSCSVMHEALHNRYTQKSLSLSP
light: DIVMTQSPLSLPVTPGEPASISCRSSQSLVHSNRNTYLHWYQQKPGQAPRLLIYKVSNRFSGVPDRFSGSGSGTDFTLKISRVEAEDVGVYYCGQGTQVPYTFGQGTKLEIKRTVAAPSVFIFPPSDEQLKSGTASVVCLLNNFYPREAKVQWKVDNALQSGNSQESVTEQDSKDSTYSLSSTLTLSKADYEKHKVYACEVTHQGLSSPVTKSFNRGEC

Molecular target: T1, CD3 epsilon homodimer protein (UniProt P07766 23-126)
T1 construct: immobilized on Sensor chip CM4 by amine coupling; also called CD3 (CD3 epsilon)
Test: SPR (Biacore T200), CD3 epsilon homodimer on CM4 chip, one-arm antibody as analyte, 25 C;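 note: homodimer attached to the sensor surface via amine coupling, HBS-EP+ used as running buffer during binding runs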

T1 sequence (P07766 23-126): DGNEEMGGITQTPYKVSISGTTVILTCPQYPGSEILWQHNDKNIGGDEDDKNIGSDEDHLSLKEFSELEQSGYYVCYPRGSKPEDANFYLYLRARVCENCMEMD

ratio of amounts bound (altered form / CE115HA000)	Binder
1.05	B1
0.52	B2
0.31	B3
0.51	B4
